Experimental data: US12616737B2, “Liquid formulations of amylin analogues” (Zealand Pharma A/S, priority 2022, dated 2026)
Numbered stars: 1 amine (or outer) side, 2 acyl side, 3 side chain; on linkers, the order of the positions; unused ones are H or OH. Bridge positions count the residues as written; N and C are the ends. Square brackets hold non-standard residues; d marks the D form. * marks the point of attachment. C20 diacid = O=C(O)CCCCCCCCCCCCCCCCCCC(=O)*; γGlu = O=C(O)[C@H](CCC(=O)[*:2])N[*:1]; Hyp = O=C(O)[C@@H]1C[C@@H](O)CN1; NMeI = CC[C@H](C)[C@H](NC)C(=O)O; Aad = N[C@@H](CCCC(=O)O)C(=O)O; Sar = CNCC(=O)O

Tests used:
[1] = human trials; cited from earlier work
pI of the peptide = assay type: physicochemical
hAMYR2 = hAMYR2 (Homo sapiens, UniProt P30988); conditions: as described in WO 2018/046719; cited from earlier work
hAMYR2, sequence (O60895 43-175 partner, one chain of several): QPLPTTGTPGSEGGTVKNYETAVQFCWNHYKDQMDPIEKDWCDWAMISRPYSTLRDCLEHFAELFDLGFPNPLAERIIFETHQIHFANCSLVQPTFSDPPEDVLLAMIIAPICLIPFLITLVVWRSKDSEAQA

hAMYR3 = target: T1, hAMYR3 (Homo sapiens, UniProt P30988); conditions: as described in WO 2018/046719; cited from earlier work
T1 sequence (P30988 25-474): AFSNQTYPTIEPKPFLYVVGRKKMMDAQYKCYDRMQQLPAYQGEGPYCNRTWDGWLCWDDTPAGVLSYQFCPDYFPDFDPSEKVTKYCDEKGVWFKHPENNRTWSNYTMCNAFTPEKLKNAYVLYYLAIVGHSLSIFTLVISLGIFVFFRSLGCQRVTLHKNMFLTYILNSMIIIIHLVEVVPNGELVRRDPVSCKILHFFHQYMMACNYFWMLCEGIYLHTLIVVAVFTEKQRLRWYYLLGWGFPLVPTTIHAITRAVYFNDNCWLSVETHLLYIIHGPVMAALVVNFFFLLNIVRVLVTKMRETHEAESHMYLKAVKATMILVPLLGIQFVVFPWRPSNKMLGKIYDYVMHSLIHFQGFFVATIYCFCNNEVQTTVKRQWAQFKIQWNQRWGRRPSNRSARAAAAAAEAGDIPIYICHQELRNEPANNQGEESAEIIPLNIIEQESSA
T1 sequence (O60896 24-148 partner): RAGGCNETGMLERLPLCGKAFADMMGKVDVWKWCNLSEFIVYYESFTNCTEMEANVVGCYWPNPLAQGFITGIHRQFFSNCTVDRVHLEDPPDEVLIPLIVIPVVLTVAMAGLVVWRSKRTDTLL

[2] = Physical stability evaluation by ThT-stress test (ASSAY IIId), lag-time of fibril formation; assay type: physicochemical; conditions: for ThT lag time: 1 mg/ml CPD 1, 20 mM TRIS, 118 mM NaCl
Description: Physical Stability Evaluation by ThT-Stress Test (ASSAY IIId)
A 1 mM ThT stock solution was prepared and 12 μL was mixed with 288 μL of CPD 1 formulation. Samples were loaded in a 96-well black fluorescence plate (clear bottom) in duplicate 2×150 μL. Data were collected in a Fluorescence Plate reader from Biotek Synergy™ H4 Hybrid Multi-Mode at fixed intervals of 10 min, each preceded by 300 s of auto mixing (agitation), over a period of up to 60 hours at 40° C. Physical stability, expressed as lag-time of fibril formation (in hours), was defined as the intersection between two linear regressions representing the initial stable phase and the growth phase.
Physical stability was evaluated in terms of fibril formation by ThT-stress test measured over 60 hours at 40° C. Initial peptide particle size (z-average) was also determined by DLS.

[3] = Dynamic light scattering (DLS) (ASSAY IIIc), peptide particle size; assay type: physicochemical; conditions: initial z-average by DLS, 1 mg/ml CPD 1, 20 mM TRIS, 118 mM NaCl
Description: Dynamic Light Scattering (DLS) (ASSAY IIIc)
Peptide particle size distribution was determined with dynamic light scattering analysis. The standard DLS experiment is conducted in a nunc 96 well plate with a sample volume of 165 μL and measured in a DynaPro Plate reader II instrument. Typically used parameters were temperature at 25° C., acquisition time 2 s, 50 acquisitions per sample, Detection: Hydrodynamic radius Rh, Correlation function cut off [μs]: […] and Peak radius cut off [nm]: 0.5-1000.

[4] = Solubility test: CPD 1 dissolved in alkaline MQW by stirring, visual control; assay type: physicochemical; conditions: in MQW (alkaline, NaOH)
Description: To test solubility, CPD 1 was dissolved in alkaline MQW (pH adjusted with NaOH) by stirring.

hAMYR1 = hAMYR1 (Homo sapiens, UniProt P30988); conditions: as described in WO 2018/046719; cited from earlier work
hAMYR1, sequence (O60894 27-148 partner, one chain of several): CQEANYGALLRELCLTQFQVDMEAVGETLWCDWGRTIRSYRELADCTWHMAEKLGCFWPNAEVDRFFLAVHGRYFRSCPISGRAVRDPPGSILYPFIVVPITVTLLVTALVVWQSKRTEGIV

Molecule	effect on body weight [1]	pI of the peptide (pI of the peptide)	agonist activity at hAMYR2 (hAMYR2)	agonist activity at hAMYR3 (hAMYR3)	ThT lag time ([2]; pH 5.8, ThT-stress test over 60 hours at 40° C.) [h]	ThT lag time ([2]; pH 6.0, over 60 hours at 40° C.) [h]	ThT lag time ([2]; pH 6.3, over 60 hours at 40° C.) [h]	ThT lag time ([2]; pH 6.6, over 60 hours at 40° C.) [h]	ThT lag time ([2]; pH 6.8, over 60 hours at 40° C.) [h]	ThT lag time ([2]; pH 7.0, over 60 hours at 40° C.) [h]	stability towards fibrillation and aggregation ([2]; pH range 5.8-7.0, ThT-stress test and DLS (Table 3))	Peptide particle size (nm) ([3]; pH 5.8)	Peptide particle size (nm) ([3]; pH 6.0)	Peptide particle size (nm) ([3]; pH 6.3)	Peptide particle size (nm) ([3]; pH 6.6)	Peptide particle size (nm) ([3]; pH 6.8)	Peptide particle size (nm) ([3]; pH 7.0)	Concentration at which CPD 1 could be dissolved to a clear solution [4]	agonist activity at hAMYR1 (hAMYR1)
CC[C@H](C)[C@H](NC(=O)[C@@H]1CCCN1C(=O)CNC(=O)[C@H](Cc1ccccc1)NC(=O)[C@H](CC(N)=O)NC(=O)[C@H](CC(N)=O)NC(=O)[C@H](CO)NC(=O)[C@H](CO)NC(=O)[C@H](Cc1c[nH]cn1)NC(=O)[C@@H](NC(=O)[C@H](CC(C)C)NC(=O)[C@H](Cc1ccccc1)NC(=O)[C@H](CC(N)=O)NC(=O)[C@H](C)NC(=O)[C@H](CC(C)C)NC(=O)[C@H](CCCNC(=N)N)NC(=O)[C@H](CCC(N)=O)NC(=O)[C@@H](NC(=O)[C@H](C)NC(=O)[C@@H]1CSSC[C@H](NC(=O)[C@@H](N)CCCCN)C(=O)N[C@@H](CC(N)=O)C(=O)N[C@@H]([C@@H](C)O)C(=O)N[C@@H](C)C(=O)N[C@@H]([C@@H](C)O)C(=O)N1)[C@@H](C)O)C(C)C)C(=O)N[C@@H](CC(C)C)C(=O)N1CCC[C@H]1C(=O)N1CCC[C@H]1C(=O)N[C@H](C(=O)N[C@@H](CC(N)=O)C(=O)N[C@H](C(=O)NCC(=O)N[C@@H](CO)C(=O)N[C@@H](CC(N)=O)C(=O)N[C@H](C(=O)N[C@@H](Cc1ccc(O)cc1)C(N)=O)[C@@H](C)O)C(C)C)[C@@H](C)O [pramlintide]	reduce body weight or reduce weight gain	–	–	–	–	–	–	–	–	–	–	–	–	–	–	–	–	–	–
[19CD]-isoGlu-RD( )GTATK( )ATERLA-Aad-FLQRSSF-Gly(Me)-A-Ile(Me)-LSSTEVGSNT-Hyp-NH2 ({C20 diacid}-[γGlu]RDGTATKATERLA[Aad]FLQRSSF[Sar]A[NMeI]LSSTEVGSNT[Hyp]-NH2; lactam 3-8) [CPD 1]	–	4.36	agonist activity	agonist activity	>60	>60	>60	>60	>60	>60	stable towards fibrillation and aggregation impacting peptide particle size	3.3	4.0	3.2	3.0	3.7	3.0	up to 50 mg/ml	agonist activity
